From patent US20180235193A1 (MINERVA BIOTECHNOLOGIES, published 2018)

Molecular target: T1, recombinant human NME7-AB (human, UniProt Q9Y5B8 92-376)
T1 construct: Truncated recombinant human NME7, about 33 kDa, active as a monomer; also called rhMNE7-AB
T1 sequence: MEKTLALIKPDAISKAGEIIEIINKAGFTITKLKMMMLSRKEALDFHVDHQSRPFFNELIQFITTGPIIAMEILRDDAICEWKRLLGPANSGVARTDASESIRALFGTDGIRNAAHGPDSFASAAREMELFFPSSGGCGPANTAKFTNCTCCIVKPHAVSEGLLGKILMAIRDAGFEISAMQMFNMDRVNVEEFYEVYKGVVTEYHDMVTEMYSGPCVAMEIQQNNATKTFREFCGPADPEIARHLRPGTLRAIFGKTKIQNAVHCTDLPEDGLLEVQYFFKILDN
Assay: sandwich ELISA, PSMGFR peptide coated on the surface, HRP signal

- binding result: binds
B1: MUC1* extracellular domain peptide PSMGFR (peptide)
peptide: GTINVHDVETQFNQYKTEAASRYNLTISDVSVSDVPFPFSAQSGA
notes: Synthetic peptide; also called PSMGFR peptide; MUC1* peptide
